The results in this text go back to the supplement of paper PMC9112550, “Optimization of the antimicrobial peptide Bac7 by deep mutational scanning” (BMC Biology, 2022).
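Further: peptides expressed intracellularly from a pBAD plasmid library in pooled LB shake-flask culture, induced with 0.3% L-arabinose, DNA abundance read by NGS, three biological replicates, DESeq2 with apeglm shrinkage.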

This data set concerns Escherichia coli TOP10. Kind of data set: shrunken log2 fold change of peptide-encoding DNA abundance (4.5 h post-induction vs induction); higher = less antimicrobial activity (less host growth inhibition). The conditions noted are these: time post-induction: 4.5 h; library: site-saturation at positions 5, 18, 19, 20.
Consider RRIRDRPPRLPRPRPRPFRNPRP, for which the “shrunken log2 fold change” value is -0.0013.

RRIRSRPPRLPRPRPRPFEHPRP: the “shrunken log2 fold change” value was -0.0715.

For the sequence RRIRHRPPRLPRPRPRPFGAPRP, the “shrunken log2 fold change” value was -0.0114.

As to RRIRKRPPRLPRPRPRPFDWPRP, the “shrunken log2 fold change” value worked out at 0.243.

RRIRHRPPRLPRPRPRPCTRPRP: the “shrunken log2 fold change” value worked out at 0.0237.

Regarding RRIRHRPPRLPRPRPRPFCYPRP, the “shrunken log2 fold change” value is -0.286.

As to RRIRRRPPRLPRPRPRPEEKPRP, the “shrunken log2 fold change” value is -0.00133.

On to RRIRMRPPRLPRPRPRPRGCPRP, for which the “shrunken log2 fold change” value was 1.08.

For the sequence RRIRVRPPRLPRPRPRPQWLPRP, the “shrunken log2 fold change” value was 0.188.

As to RRIRTRPPRLPRPRPRPEKDPRP, the “shrunken log2 fold change” value is -0.271.

Regarding RRIRTRPPRLPRPRPRPILYPRP, the “shrunken log2 fold change” value is -0.275.

For the sequence RRIRPRPPRLPRPRPRPKDWPRP, the “shrunken log2 fold change” value came out at 0.342.

As for RRIRIRPPRLPRPRPRPSDKPRP, the “shrunken log2 fold change” value is -0.79.

Turning to RRIRCRPPRLPRPRPRPCLMPRP, the “shrunken log2 fold change” value is -0.421.

RRIRRRPPRLPRPRPRPMHRPRP: the “shrunken log2 fold change” value was determined as 0.0514.

Take RRIRMRPPRLPRPRPRPVRKPRP: the “shrunken log2 fold change” value amounted to 0.136.

On to RRIRIRPPRLPRPRPRPKRNPRP, for which the “shrunken log2 fold change” value was -0.0625.

RRIRRRPPRLPRPRPRPLWHPRP: the “shrunken log2 fold change” value worked out at 1.15.

For RRIRWRPPRLPRPRPRPTWIPRP, the “shrunken log2 fold change” value was determined as 0.0497.

Consider RRIRDRPPRLPRPRPRPYTQPRP, for which the “shrunken log2 fold change” value was -0.165.

Turning to RRIRVRPPRLPRPRPRPVHQPRP, the “shrunken log2 fold change” value came out at 0.241.

As to RRIRARPPRLPRPRPRPQRCPRP, the “shrunken log2 fold change” value came to 0.256.

As to RRIRARPPRLPRPRPRPHHYPRP, the “shrunken log2 fold change” value is -0.223.

Take RRIRVRPPRLPRPRPRPFKGPRP: the “shrunken log2 fold change” value is -0.0313.

Turning to RRIRCRPPRLPRPRPRPIKIPRP, the “shrunken log2 fold change” value was -0.436.

For the sequence RRIRARPPRLPRPRPRPEWDPRP, the “shrunken log2 fold change” value was 1.13.

For the sequence RRIRVRPPRLPRPRPRPQEMPRP, the “shrunken log2 fold change” value stood at 0.0818.

For RRIRWRPPRLPRPRPRPSMRPRP, the “shrunken log2 fold change” value worked out at 0.707.

As to RRIRRRPPRLPRPRPRPWWWPRP, the “shrunken log2 fold change” value is 0.184.

With RRIRQRPPRLPRPRPRPVDRPRP, the “shrunken log2 fold change” value was -0.0864.

For RRIRDRPPRLPRPRPRPYMWPRP, the “shrunken log2 fold change” value was found to be 0.0589.

With RRIRPRPPRLPRPRPRPPYYPRP, the “shrunken log2 fold change” value is -0.492.

For the sequence RRIRIRPPRLPRPRPRPSPTPRP, the “shrunken log2 fold change” value was -0.424.

As to RRIRVRPPRLPRPRPRPWDDPRP, the “shrunken log2 fold change” value is -0.27.

For the sequence RRIRHRPPRLPRPRPRPAQPPRP, the “shrunken log2 fold change” value came to 0.1.

Consider RRIRQRPPRLPRPRPRPDHHPRP, for which the “shrunken log2 fold change” value is -0.308.

Consider RRIRVRPPRLPRPRPRPADTPRP, for which the “shrunken log2 fold change” value is -0.32.

Consider RRIRLRPPRLPRPRPRPCWVPRP, for which the “shrunken log2 fold change” value is -0.00196.

For the sequence RRIRQRPPRLPRPRPRPRFDPRP, the “shrunken log2 fold change” value is -0.0137.

Regarding RRIRFRPPRLPRPRPRPMDGPRP, the “shrunken log2 fold change” value was -0.0177.

Take RRIRSRPPRLPRPRPRPLQDPRP: the “shrunken log2 fold change” value was -0.129.

Regarding RRIRHRPPRLPRPRPRPVTHPRP, the “shrunken log2 fold change” value is -0.12.

Turning to RRIRRRPPRLPRPRPRPYAKPRP, the “shrunken log2 fold change” value is 0.106.

As to RRIRARPPRLPRPRPRPNGYPRP, the “shrunken log2 fold change” value turned out to be 0.122.

Regarding RRIRKRPPRLPRPRPRPSSDPRP, the “shrunken log2 fold change” value was 0.246.

Turning to RRIRLRPPRLPRPRPRPFFTPRP, the “shrunken log2 fold change” value is -0.144.

As for RRIRSRPPRLPRPRPRPNCWPRP, the “shrunken log2 fold change” value amounted to 0.292.

Turning to RRIRWRPPRLPRPRPRPMCVPRP, the “shrunken log2 fold change” value stood at 0.0501.

Take RRIRDRPPRLPRPRPRPKYWPRP: the “shrunken log2 fold change” value was -0.147.

In the case of RRIRGRPPRLPRPRPRPQIRPRP, the “shrunken log2 fold change” value is 0.808.

Take RRIRNRPPRLPRPRPRPTMYPRP: the “shrunken log2 fold change” value was -0.486.

For RRIRDRPPRLPRPRPRPWPLPRP, the “shrunken log2 fold change” value is 0.00172.

Consider RRIRWRPPRLPRPRPRPTSTPRP, for which the “shrunken log2 fold change” value worked out at 0.0842.

Take RRIRERPPRLPRPRPRPPRLPRP: the “shrunken log2 fold change” value came out at 0.178.

With RRIRIRPPRLPRPRPRPQIKPRP, the “shrunken log2 fold change” value is -0.853.

Turning to RRIRGRPPRLPRPRPRPAQNPRP, the “shrunken log2 fold change” value turned out to be 0.81.

As for RRIRPRPPRLPRPRPRPENKPRP, the “shrunken log2 fold change” value is -0.232.

Take RRIRCRPPRLPRPRPRPEKHPRP: the “shrunken log2 fold change” value is 0.00607.

RRIRGRPPRLPRPRPRPDMRPRP: the “shrunken log2 fold change” value worked out at 1.36.

Consider RRIRMRPPRLPRPRPRPDPKPRP, for which the “shrunken log2 fold change” value was -0.000946.

In the case of RRIRGRPPRLPRPRPRPQSYPRP, the “shrunken log2 fold change” value was found to be 0.113.

Turning to RRIRSRPPRLPRPRPRPTAVPRP, the “shrunken log2 fold change” value came to 0.466.

With RRIRFRPPRLPRPRPRPFHHPRP, the “shrunken log2 fold change” value was -0.976.

RRIRPRPPRLPRPRPRPTHPPRP: the “shrunken log2 fold change” value was 0.653.

RRIRARPPRLPRPRPRPIKEPRP: the “shrunken log2 fold change” value was -0.0357.

With RRIRMRPPRLPRPRPRPVGVPRP, the “shrunken log2 fold change” value is 0.806.

For the sequence RRIRVRPPRLPRPRPRPDYEPRP, the “shrunken log2 fold change” value turned out to be 0.0678.

As for RRIRDRPPRLPRPRPRPDAWPRP, the “shrunken log2 fold change” value is 0.816.

On to RRIRTRPPRLPRPRPRPFCYPRP, for which the “shrunken log2 fold change” value was -0.24.

For RRIRPRPPRLPRPRPRPNCCPRP, the “shrunken log2 fold change” value stood at 0.187.

Regarding RRIRGRPPRLPRPRPRPINHPRP, the “shrunken log2 fold change” value is -0.0462.

Regarding RRIRDRPPRLPRPRPRPQAIPRP, the “shrunken log2 fold change” value was 0.0512.

Consider RRIRTRPPRLPRPRPRPECSPRP, for which the “shrunken log2 fold change” value was determined as 0.0479.

For RRIRTRPPRLPRPRPRPLKDPRP, the “shrunken log2 fold change” value stood at 0.0122.

For the sequence RRIRDRPPRLPRPRPRPCPCPRP, the “shrunken log2 fold change” value is -0.478.

For RRIRGRPPRLPRPRPRPPPQPRP, the “shrunken log2 fold change” value was found to be 1.55.

For the sequence RRIRSRPPRLPRPRPRPNGGPRP, the “shrunken log2 fold change” value was -0.0284.

RRIRLRPPRLPRPRPRPEADPRP: the “shrunken log2 fold change” value stood at 0.357.

Turning to RRIRNRPPRLPRPRPRPVMCPRP, the “shrunken log2 fold change” value was -0.0207.

As for RRIRLRPPRLPRPRPRPKMFPRP, the “shrunken log2 fold change” value came out at 0.0156.

Regarding RRIRWRPPRLPRPRPRPGFQPRP, the “shrunken log2 fold change” value is 0.127.

For RRIRHRPPRLPRPRPRPSMLPRP, the “shrunken log2 fold change” value is -0.539.

As to RRIRIRPPRLPRPRPRPDTLPRP, the “shrunken log2 fold change” value is -0.658.

For RRIRLRPPRLPRPRPRPWANPRP, the “shrunken log2 fold change” value was determined as 0.0875.

With RRIRCRPPRLPRPRPRPGPEPRP, the “shrunken log2 fold change” value amounted to 0.473.

Regarding RRIRCRPPRLPRPRPRPAYVPRP, the “shrunken log2 fold change” value was -0.288.

In the case of RRIRTRPPRLPRPRPRPRKTPRP, the “shrunken log2 fold change” value stood at 0.111.

Take RRIRWRPPRLPRPRPRPMQTPRP: the “shrunken log2 fold change” value came to 1.

With RRIRHRPPRLPRPRPRPTCYPRP, the “shrunken log2 fold change” value was -0.272.

For RRIRKRPPRLPRPRPRPKSQPRP, the “shrunken log2 fold change” value worked out at 0.109.

For RRIRSRPPRLPRPRPRPEDRPRP, the “shrunken log2 fold change” value is 0.972.

With RRIRYRPPRLPRPRPRPFVPPRP, the “shrunken log2 fold change” value is -0.285.

On to RRIRFRPPRLPRPRPRPDNPPRP, for which the “shrunken log2 fold change” value is -0.0747.

In the case of RRIRVRPPRLPRPRPRPYCWPRP, the “shrunken log2 fold change” value is -0.0314.

RRIRTRPPRLPRPRPRPATQPRP: the “shrunken log2 fold change” value was determined as 1.54.

As for RRIRSRPPRLPRPRPRPGFAPRP, the “shrunken log2 fold change” value turned out to be 0.502.

For the sequence RRIRIRPPRLPRPRPRPGYVPRP, the “shrunken log2 fold change” value is -0.181.

In the case of RRIRERPPRLPRPRPRPHWKPRP, the “shrunken log2 fold change” value was -0.0167.

With RRIRLRPPRLPRPRPRPMVYPRP, the “shrunken log2 fold change” value was -0.0262.

For RRIRDRPPRLPRPRPRPGSGPRP, the “shrunken log2 fold change” value was 0.499.

RRIRGRPPRLPRPRPRPVKAPRP: the “shrunken log2 fold change” value amounted to 0.659.

Consider RRIRMRPPRLPRPRPRPGYVPRP, for which the “shrunken log2 fold change” value is -0.118.

In the case of RRIRDRPPRLPRPRPRPDGIPRP, the “shrunken log2 fold change” value was -0.0113.

With RRIRIRPPRLPRPRPRPTKYPRP, the “shrunken log2 fold change” value is -0.681.

For the sequence RRIRWRPPRLPRPRPRPMRHPRP, the “shrunken log2 fold change” value is 0.228.

Consider RRIRIRPPRLPRPRPRPWCIPRP, for which the “shrunken log2 fold change” value is -0.0951.

For the sequence RRIRLRPPRLPRPRPRPWDVPRP, the “shrunken log2 fold change” value was -0.0498.

As for RRIRDRPPRLPRPRPRPTPDPRP, the “shrunken log2 fold change” value came to 0.536.

Regarding RRIRPRPPRLPRPRPRPHSRPRP, the “shrunken log2 fold change” value is -0.198.

Turning to RRIRGRPPRLPRPRPRPTIKPRP, the “shrunken log2 fold change” value was determined as 0.48.

In the case of RRIRERPPRLPRPRPRPFDQPRP, the “shrunken log2 fold change” value was -0.0377.

Consider RRIRHRPPRLPRPRPRPWHHPRP, for which the “shrunken log2 fold change” value was determined as 0.0223.

As to RRIRDRPPRLPRPRPRPNFRPRP, the “shrunken log2 fold change” value was determined as 0.267.

For the sequence RRIRQRPPRLPRPRPRPVDNPRP, the “shrunken log2 fold change” value turned out to be 0.0335.

Take RRIRPRPPRLPRPRPRPDAQPRP: the “shrunken log2 fold change” value is 0.271.

On to RRIRFRPPRLPRPRPRPTPPPRP, for which the “shrunken log2 fold change” value is 0.797.

On to RRIRFRPPRLPRPRPRPTGRPRP, for which the “shrunken log2 fold change” value was found to be 0.131.

Regarding RRIRDRPPRLPRPRPRPFHEPRP, the “shrunken log2 fold change” value is -0.048.

RRIRRRPPRLPRPRPRPCMKPRP: the “shrunken log2 fold change” value was -0.0288.

As for RRIRARPPRLPRPRPRPLLDPRP, the “shrunken log2 fold change” value came out at 0.788.

Regarding RRIRNRPPRLPRPRPRPQVIPRP, the “shrunken log2 fold change” value was -0.000921.

With RRIRERPPRLPRPRPRPQSLPRP, the “shrunken log2 fold change” value was -0.0684.

As to RRIRWRPPRLPRPRPRPMTFPRP, the “shrunken log2 fold change” value was -0.108.

Take RRIRWRPPRLPRPRPRPLRNPRP: the “shrunken log2 fold change” value stood at 0.847.

Turning to RRIRLRPPRLPRPRPRPSHEPRP, the “shrunken log2 fold change” value stood at 0.031.
